Assay results from US20210122795A1 (CITY OF HOPE, published 2021).
Ends that are not written are not given here.

B1: Peptide 12 (chemically synthesized cyclic peptide) (peptide)
peptide: CSVLPPFMC
modifications: also: cyclic peptide, ring type not given here
notes: Immobilized on a CM5 chip in the SPR; also called Pep12
B2: Peptide 16 (chemically synthesized cyclic peptide) (peptide)
peptide: CWSPLPFMC
modifications: also: cyclic peptide, ring type not given here
notes: Immobilized on a CM5 chip in the SPR; also called Pep16
B3: mLcn2 (modified lipocalin2, monomeric) (designed binder)
chain: QDSTSDLIPAPPLSKVPLQQNFQDNQFHGKWYVVGLAGNRILRDDQHPMNMYATIYELKEDKSYNVTSVISSHKKCEYTIATFVPGSQPGEFTLGNIKSYGDKTSYLVRVVSTDYNQYAVVFFKLAEDNAEFFAITIYGRTKELASELKENFIRFSKSLGLPENHIVFPVPIDQCIDG
notes: Engineered lipocalin 2; also called monomeric mLCN2
B4: mLcn2-Fc (unmodified, without N-terminal mask) (Fc fusion)
chain: B3 chain
notes: also called dimeric mLCN2-Fc; unmodified mLcn2-Fc; not shown: flexible linker between mLcn2 and Fc; human IgG1 Fc domain

Tests used:
[1] = biological target: B3; test: crystal structures of the peptide-mLcn2 complexes
[2] = biological target: T1, CTLA-4-Fc (recombinant bivalent CTLA-4 fused to the human IgG1 Fc) (human, UniProt P16410 36-161, Homodimer through the IgG1 Fc (bivalent); the Fc is left out of the letters.); test: SPR; dimeric CTLA-4-Fc immobilized at medium density on a CM5 chip; analyte 3-1000 nM
T1 construct: also called dimeric CTLA-4-Fc; CTLA-4 (in the SEC legends); not shown: human IgG1 Fc and any linker of the CTLA-4-Fc fusion
Experimental: (§1) FIG. 10A: SPR analysis. Dimeric CTLA-4-Fc was immobilized at medium density to a CM5 chip. A range of 3-1000 nM monomeric mLCN2 (top) and 3-300 nM dimeric mLCN2-Fc (bottom) analytes were used for kinetics analyses. […] Concentration of analytes is 1000; 300; 30; and 3 nM.

[3] = biological target: B2; test: SPR; analyte mLcn2 flowed over Peptide16 immobilized on a CM5 chip; analyte mLcn2 flowed over Peptide16 immobilized to a CM5 chip
Source text: FIG. 14A: mLCN2 vs. Pep16. Surface plasmon resonance of analyte mLcn2 flowed over ligand Peptide16 immobilized to a CM5 chip. Representative results are shown from three independent experiments.

[4] = biological target: T1, CTLA-4-Fc (recombinant bivalent CTLA-4 …); test: SPR; dimeric CTLA-4-Fc immobilized at medium density on a CM5 chip; analyte 3-300 nM
Experimental: as §1

[5] = biological target: B1; test: SPR; analyte mLcn2-Fc flowed over Peptide12 immobilized on a CM5 chip
Source text: FIG. 14B: mLCN2-Fc vs. Pep12. Surface plasmon resonance of analyte mLcn2-Fc flowed over ligand Peptide12 immobilized to a CM5 chip. Representative results are shown from three independent experiments.

T1 sequence (P16410 36-161 limits assumed): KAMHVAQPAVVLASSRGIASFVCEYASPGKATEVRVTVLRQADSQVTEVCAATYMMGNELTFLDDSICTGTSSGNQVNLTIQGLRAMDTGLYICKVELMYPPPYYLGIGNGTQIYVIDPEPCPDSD

Binder: B1
binding result [1]: binds

Binder: B2
binding result [1]: binds

Binder: B3
koff [2]: 0.0002 s⁻¹
kon [2]: 36000 M⁻¹ s⁻¹
Kd [3]: 4.6 µM

Binder: B4
kon [4]: 10000 M⁻¹ s⁻¹
Kd [5]: 3.4 µM
